Reference: patent US20260216242A1 (ALMAC DISCOVERY, published 2026)

T1: human ALPI (intestinal alkaline phosphatase) expressed on the surface of CHO cells (human, UniProt P09923 20-503)
T1 sequence (looked up): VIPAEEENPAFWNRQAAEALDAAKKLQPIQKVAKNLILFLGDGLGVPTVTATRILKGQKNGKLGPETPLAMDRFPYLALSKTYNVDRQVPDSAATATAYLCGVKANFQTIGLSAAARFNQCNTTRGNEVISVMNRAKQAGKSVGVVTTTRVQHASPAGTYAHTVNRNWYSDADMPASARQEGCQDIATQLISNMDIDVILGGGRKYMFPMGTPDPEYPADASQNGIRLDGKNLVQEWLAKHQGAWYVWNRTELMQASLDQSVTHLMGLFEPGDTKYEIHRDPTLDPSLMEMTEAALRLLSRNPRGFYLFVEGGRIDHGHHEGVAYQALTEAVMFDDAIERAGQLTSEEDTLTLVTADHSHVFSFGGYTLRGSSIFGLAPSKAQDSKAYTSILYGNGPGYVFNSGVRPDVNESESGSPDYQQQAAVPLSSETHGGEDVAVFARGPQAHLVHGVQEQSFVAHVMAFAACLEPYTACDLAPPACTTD

T2: human ALPL (tissue non-specific alkaline phosphatase) expressed on the surface of CHO cells (human, UniProt P05186 18-501)
T2 sequence (looked up): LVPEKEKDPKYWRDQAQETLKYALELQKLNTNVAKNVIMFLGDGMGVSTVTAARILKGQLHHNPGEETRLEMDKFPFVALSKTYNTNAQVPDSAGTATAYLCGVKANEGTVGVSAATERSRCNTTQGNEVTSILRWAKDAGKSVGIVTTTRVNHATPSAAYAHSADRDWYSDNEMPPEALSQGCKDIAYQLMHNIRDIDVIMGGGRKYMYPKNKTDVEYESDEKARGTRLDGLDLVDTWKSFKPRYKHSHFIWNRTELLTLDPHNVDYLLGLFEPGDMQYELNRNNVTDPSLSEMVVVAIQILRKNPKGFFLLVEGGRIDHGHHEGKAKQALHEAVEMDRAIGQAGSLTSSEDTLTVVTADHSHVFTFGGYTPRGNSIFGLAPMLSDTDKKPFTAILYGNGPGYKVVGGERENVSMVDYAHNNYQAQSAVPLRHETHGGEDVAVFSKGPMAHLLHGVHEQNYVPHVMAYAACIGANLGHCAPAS


Experiments:
[1] = target: T3, human ALPP (alkaline phosphatase, placental type) expressed on the surface of CHO cells (human, UniProt P05187 23-506); assay: cell-based or functional assay
T3 sequence (P05187 23-506 limits assumed): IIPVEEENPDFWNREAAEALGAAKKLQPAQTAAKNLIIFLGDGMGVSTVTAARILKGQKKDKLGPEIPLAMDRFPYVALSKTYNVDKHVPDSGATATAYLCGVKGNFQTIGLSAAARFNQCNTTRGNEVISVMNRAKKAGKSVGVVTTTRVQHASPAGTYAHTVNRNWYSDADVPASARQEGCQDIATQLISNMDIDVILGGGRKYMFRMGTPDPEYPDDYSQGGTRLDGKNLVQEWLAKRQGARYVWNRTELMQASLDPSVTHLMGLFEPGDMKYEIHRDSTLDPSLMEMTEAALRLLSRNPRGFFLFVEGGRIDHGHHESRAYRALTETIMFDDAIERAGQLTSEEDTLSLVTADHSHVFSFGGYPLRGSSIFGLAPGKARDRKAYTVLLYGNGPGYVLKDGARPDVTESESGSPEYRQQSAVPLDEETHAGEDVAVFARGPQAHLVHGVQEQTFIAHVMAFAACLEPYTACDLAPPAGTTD

[2] = target: T1, human ALPI (intestinal alkaline …); assay: cell-based or functional assay
[3] = target: T2, human ALPL (tissue non-specific …); assay: cell-based or functional assay
[4] = target: T2, human ALPL (tissue non-specific …); assay: flow cytometry, CHO-ALPL cells
[5] = target: T1, human ALPI (intestinal alkaline …); assay: flow cytometry on CHO-ALPI cells
[6] = target: T4, human ALPPL2 (alkaline phosphatase, germ cell type) expressed on the surface of CHO cells (human, UniProt P10696 20-503); assay: flow cytometry on CHO-ALPPL2 cells, apparent KD (KDapp)
T4 construct: whole, on cells; The cell-surface form has none; also called CHO-ALPPL2; hALPPL2
T4 sequence (P10696 20-503): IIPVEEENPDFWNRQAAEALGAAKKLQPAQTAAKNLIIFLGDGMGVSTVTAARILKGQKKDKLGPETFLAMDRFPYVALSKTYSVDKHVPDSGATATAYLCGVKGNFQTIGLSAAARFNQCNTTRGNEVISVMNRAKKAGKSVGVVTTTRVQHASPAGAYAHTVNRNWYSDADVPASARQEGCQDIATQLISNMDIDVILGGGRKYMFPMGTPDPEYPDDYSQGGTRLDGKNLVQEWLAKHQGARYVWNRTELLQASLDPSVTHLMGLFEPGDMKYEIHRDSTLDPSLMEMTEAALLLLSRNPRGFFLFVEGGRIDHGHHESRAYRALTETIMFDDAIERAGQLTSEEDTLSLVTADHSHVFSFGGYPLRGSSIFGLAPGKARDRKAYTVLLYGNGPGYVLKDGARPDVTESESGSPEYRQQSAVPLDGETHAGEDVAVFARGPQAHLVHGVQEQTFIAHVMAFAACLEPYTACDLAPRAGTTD
Procedure, shortened: (§1)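 Cell-surface binding to CHO cells stably transfected with human ALPP, ALPPL2, ALPI or ALPL; cells detached with 0.1% EDTA/PBS, incubated with biparatopic VHH-hFc drug conjugates over a concentration range for 1 hr on ice. Bound agent detected with FITC anti-human Ab (30 min, ice, dark) by flow cytometry; KDapp derived from binding.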

[7] = target: T3, human ALPP (alkaline phosphatase, …); assay: flow cytometry on CHO-ALPP cells, apparent KD (KDapp)
Procedure, shortened: as §1

[8] = target: T4, human ALPPL2 (alkaline phosphatase, …); assay: cell-based or functional assay
[9] = target: T1, human ALPI (intestinal alkaline …); assay: flow cytometry, CHO-ALPI cells

Binder | IC50 at 96 h, cell-killing of CHO-ALPP cells [1] [nM] | IC50 at 96 h, cell-killing of CHO-ALPI cells [2] [nM] | IC50 at 96 h, cell-killing of CHO-ALPL cells [3] [nM] | binding result [4] | MFI on CHO-ALPI cells at 350 nM as percent of MFI on CHO-ALPP cells (KDapp not-determinable) [5] [%] | Kd [6] [nM] | Kd [7] [nM] | IC50 at 96 h, cell-killing of CHO-ALPPL2 cells [8] [nM] | binding result [9]
D10 A06-hFc (S239/442C T366Y/Y407T), [G4S]1 linker, MC-vc-PAB-MMAE conjugate, #676 (Fc fusion, DAR 4, MC-vc-PAB-MMAE on Cys of S239C and S442C (EU numbering), Biparatopic knob-into-hole VHH-hFc heterodimer, DAR 4; The assignment of T366Y to the first named VHH and Y407T to the second follows the order of the name; No paragraph spells out this pair; also called D10-A06-hFc-vcPAB-MMAE; D10-A06 hFc-vc-MMAE) chain 1: QVQLVESGGGLVQPGGSLRLSCAASGSIFSVNTMGWYRQAPGKQRDLVAVATSGGTIHYADSVKGRFTISRDNAKNTVYLQMNSLKPEDTAVYYCNLVVPYGMIAGDHDYWGQGTKVTVSSGGGGSEPKSSDKTHTCPPCPAPELLGGPCVFLFPPKPKDTLMISRTPEVTCVVVDVSHEDPEVKFNWYVDGVEVHNAKTKPREEQYNSTYRVVSVLTVLHQDWLNGKEYKCKVSNKALPAPIEKTISKAKGQPREPQVYTLPPSRDELTKNQVSLYCLVKGFYPSDIAVEWESNGQPENNYKTTPPVLDSDGSFFLYSKLTVDKSRWQQGNVFSCSVMHEALHNHYTQKSLCLSPGK chain 2: QVHLVESGGGLVQAGGSLRLSCAASGRTFLSMGWFRQAPGKEREFVAAISWTGGSTGYADSVKGRFTISRESDKETMYLQMNSLKPEDTAVYYCAARGDVYYGGDDATRYKYWGQGTQVTVSSGGGGSEPKSSDKTHTCPPCPAPELLGGPCVFLFPPKPKDTLMISRTPEVTCVVVDVSHEDPEVKFNWYVDGVEVHNAKTKPREEQYNSTYRVVSVLTVLHQDWLNGKEYKCKVSNKALPAPIEKTISKAKGQPREPQVYTLPPSRDELTKNQVSLTCLVKGFYPSDIAVEWESNGQPENNYKTTPPVLDSDGSFFLTSKLTVDKSRWQQGNVFSCSVMHEALHNHYTQKSLCLSPGK | 5 | > 1000 | > 1000 | no binding (tested: 350 nM (highest concentration)) | ≤ 1 | 5 | 14.4 | – | –
D10 E06-hFc (S239/442C T366Y/Y407T), [G4S]1 linker, MC-vc-PAB-MMAE conjugate, #677 (Fc fusion, DAR 4, MC-vc-PAB-MMAE on Cys of S239C and S442C (EU numbering), Biparatopic knob-into-hole VHH-hFc heterodimer, DAR 4; also called D10-E06-hFc-vcPAB-MMAE; D10-E06 hFc-vc-MMAE) chain 1: QVQLVESGGGLVQPGGSLRLSCAASGSIFSVNTMGWYRQAPGKQRDLVAVATSGGTIHYADSVKGRFTISRDNAKNTVYLQMNSLKPEDTAVYYCNLVVPYGMIAGDHDYWGQGTKVTVSSGGGGSEPKSSDKTHTCPPCPAPELLGGPCVFLFPPKPKDTLMISRTPEVTCVVVDVSHEDPEVKFNWYVDGVEVHNAKTKPREEQYNSTYRVVSVLTVLHQDWLNGKEYKCKVSNKALPAPIEKTISKAKGQPREPQVYTLPPSRDELTKNQVSLYCLVKGFYPSDIAVEWESNGQPENNYKTTPPVLDSDGSFFLYSKLTVDKSRWQQGNVFSCSVMHEALHNHYTQKSLCLSPGK chain 2: QVHLVESGGGLVQAGGSLRLSCAASRRSFSEYAMGWFRQAPGKEREFVAAIGWSGVIEYADSVKGRFTISRDNAKDTVYLQMNSLKPEDTAVYYCAAGLGIRVVSQTPAYWGQGTQVTVSSGGGGSEPKSSDKTHTCPPCPAPELLGGPCVFLFPPKPKDTLMISRTPEVTCVVVDVSHEDPEVKFNWYVDGVEVHNAKTKPREEQYNSTYRVVSVLTVLHQDWLNGKEYKCKVSNKALPAPIEKTISKAKGQPREPQVYTLPPSRDELTKNQVSLTCLVKGFYPSDIAVEWESNGQPENNYKTTPPVLDSDGSFFLTSKLTVDKSRWQQGNVFSCSVMHEALHNHYTQKSLCLSPGK | 3.3 | > 1000 | > 1000 | no binding (tested: 350 nM (highest concentration)) | – | 5.5 | 9.4 | 21.1 | no binding (tested: 350 nM (highest concentration))
D10 A06-hFc (S239/442C T366Y/Y407T), [G4S]3 linker, MC-vc-PAB-MMAE conjugate, #633 (Fc fusion, DAR 4, MC-vc-PAB-MMAE on Cys of S239C and S442C (EU numbering), Biparatopic knob-into-hole VHH-hFc heterodimer, DAR 4; The assignment of T366Y to the first named VHH and Y407T to the second follows the order of the name; No paragraph spells out this pair; also called D10-A06 hFc-vcPAB-MMAE; D10-A06-hFc-vc-MMAE) chain 1: QVQLVESGGGLVQPGGSLRLSCAASGSIFSVNTMGWYRQAPGKQRDLVAVATSGGTIHYADSVKGRFTISRDNAKNTVYLQMNSLKPEDTAVYYCNLVVPYGMIAGDHDYWGQGTKVTVSSGGGGSGGGGSGGGGSEPKSSDKTHTCPPCPAPELLGGPCVFLFPPKPKDTLMISRTPEVTCVVVDVSHEDPEVKFNWYVDGVEVHNAKTKPREEQYNSTYRVVSVLTVLHQDWLNGKEYKCKVSNKALPAPIEKTISKAKGQPREPQVYTLPPSRDELTKNQVSLYCLVKGFYPSDIAVEWESNGQPENNYKTTPPVLDSDGSFFLYSKLTVDKSRWQQGNVFSCSVMHEALHNHYTQKSLCLSPGK chain 2: QVHLVESGGGLVQAGGSLRLSCAASGRTFLSMGWFRQAPGKEREFVAAISWTGGSTGYADSVKGRFTISRESDKETMYLQMNSLKPEDTAVYYCAARGDVYYGGDDATRYKYWGQGTQVTVSSGGGGSGGGGSGGGGSEPKSSDKTHTCPPCPAPELLGGPCVFLFPPKPKDTLMISRTPEVTCVVVDVSHEDPEVKFNWYVDGVEVHNAKTKPREEQYNSTYRVVSVLTVLHQDWLNGKEYKCKVSNKALPAPIEKTISKAKGQPREPQVYTLPPSRDELTKNQVSLTCLVKGFYPSDIAVEWESNGQPENNYKTTPPVLDSDGSFFLTSKLTVDKSRWQQGNVFSCSVMHEALHNHYTQKSLCLSPGK | 10.1 | > 1000 | > 1000 | no binding (tested: 350 nM (highest concentration)) | ≤ 1 | 4.4 | 7.6 | – | –
D10 E06-hFc (S239/442C T366Y/Y407T), [G4S]3 linker, MC-vc-PAB-MMAE conjugate, #634 (Fc fusion, DAR 4, MC-vc-PAB-MMAE on Cys of S239C and S442C (EU numbering), Biparatopic knob-into-hole VHH-hFc heterodimer, DAR 4; also called D10-E06 hFc-vcPAB-MMAE; D10-E06 hFc-vc-MMAE) chain 1: QVQLVESGGGLVQPGGSLRLSCAASGSIFSVNTMGWYRQAPGKQRDLVAVATSGGTIHYADSVKGRFTISRDNAKNTVYLQMNSLKPEDTAVYYCNLVVPYGMIAGDHDYWGQGTKVTVSSGGGGSGGGGSGGGGSEPKSSDKTHTCPPCPAPELLGGPCVFLFPPKPKDTLMISRTPEVTCVVVDVSHEDPEVKFNWYVDGVEVHNAKTKPREEQYNSTYRVVSVLTVLHQDWLNGKEYKCKVSNKALPAPIEKTISKAKGQPREPQVYTLPPSRDELTKNQVSLYCLVKGFYPSDIAVEWESNGQPENNYKTTPPVLDSDGSFFLYSKLTVDKSRWQQGNVFSCSVMHEALHNHYTQKSLCLSPGK chain 2: QVHLVESGGGLVQAGGSLRLSCAASRRSFSEYAMGWFRQAPGKEREFVAAIGWSGVIEYADSVKGRFTISRDNAKDTVYLQMNSLKPEDTAVYYCAAGLGIRVVSQTPAYWGQGTQVTVSSGGGGSGGGGSGGGGSEPKSSDKTHTCPPCPAPELLGGPCVFLFPPKPKDTLMISRTPEVTCVVVDVSHEDPEVKFNWYVDGVEVHNAKTKPREEQYNSTYRVVSVLTVLHQDWLNGKEYKCKVSNKALPAPIEKTISKAKGQPREPQVYTLPPSRDELTKNQVSLTCLVKGFYPSDIAVEWESNGQPENNYKTTPPVLDSDGSFFLTSKLTVDKSRWQQGNVFSCSVMHEALHNHYTQKSLCLSPGK | 9.2 | > 1000 | > 1000 | no binding (tested: 350 nM (highest concentration)) | – | 5.9 | 8.3 | 9.1 | no binding (tested: 350 nM (highest concentration))
